T1: MPK3 as prey (AD fusion) (UniProt Q39023 1-370)
T1 sequence (looked up): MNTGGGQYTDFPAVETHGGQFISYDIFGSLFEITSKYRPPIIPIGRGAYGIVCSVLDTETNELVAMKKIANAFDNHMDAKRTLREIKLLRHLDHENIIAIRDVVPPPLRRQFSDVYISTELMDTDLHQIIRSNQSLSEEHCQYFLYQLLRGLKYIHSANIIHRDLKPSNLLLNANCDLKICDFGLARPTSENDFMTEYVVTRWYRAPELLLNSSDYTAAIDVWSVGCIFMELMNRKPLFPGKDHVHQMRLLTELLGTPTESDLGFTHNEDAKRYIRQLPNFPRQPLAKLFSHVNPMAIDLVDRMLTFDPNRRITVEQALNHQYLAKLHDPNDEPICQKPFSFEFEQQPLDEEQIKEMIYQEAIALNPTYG

T2: MPK17 as prey (AD fusion) (UniProt Q84M93 1-486, limits assumed)
T2 sequence (looked up): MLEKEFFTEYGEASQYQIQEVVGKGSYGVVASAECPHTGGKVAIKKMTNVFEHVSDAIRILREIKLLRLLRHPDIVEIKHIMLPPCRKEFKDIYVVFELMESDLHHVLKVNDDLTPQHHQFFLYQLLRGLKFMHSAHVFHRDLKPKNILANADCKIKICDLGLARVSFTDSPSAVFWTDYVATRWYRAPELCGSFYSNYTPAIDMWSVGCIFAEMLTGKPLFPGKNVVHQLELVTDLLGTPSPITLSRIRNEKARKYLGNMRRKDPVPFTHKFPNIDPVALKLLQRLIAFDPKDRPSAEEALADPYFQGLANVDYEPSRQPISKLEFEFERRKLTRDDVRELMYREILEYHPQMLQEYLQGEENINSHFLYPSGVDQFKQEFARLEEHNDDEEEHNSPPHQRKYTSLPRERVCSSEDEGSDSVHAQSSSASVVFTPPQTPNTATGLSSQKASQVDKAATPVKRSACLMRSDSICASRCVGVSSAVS

T3: Flg22 peptide
T3 chain: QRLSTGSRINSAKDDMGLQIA

T4: Pep22, synthetic peptide corresponding to amino acid residues 13-35 of MKS1
T4 chain: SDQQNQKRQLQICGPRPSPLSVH

T5: histidine-tagged C1-MKS1 truncation (amino acids 1-196)
T5 chain: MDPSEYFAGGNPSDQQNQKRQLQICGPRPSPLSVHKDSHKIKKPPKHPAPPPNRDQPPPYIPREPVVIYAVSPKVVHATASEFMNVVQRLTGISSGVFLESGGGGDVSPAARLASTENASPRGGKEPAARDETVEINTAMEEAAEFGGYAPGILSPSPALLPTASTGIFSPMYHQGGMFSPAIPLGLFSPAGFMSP

T6: histidine-tagged C2-MKS1 truncation (amino acids 1-123)
T6 chain: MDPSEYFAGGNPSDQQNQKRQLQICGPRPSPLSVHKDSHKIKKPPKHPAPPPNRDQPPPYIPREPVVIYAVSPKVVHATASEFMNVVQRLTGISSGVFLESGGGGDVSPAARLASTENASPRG

T7: histidine-tagged C3-MKS1 truncation (amino acids 1-73)
T7 chain: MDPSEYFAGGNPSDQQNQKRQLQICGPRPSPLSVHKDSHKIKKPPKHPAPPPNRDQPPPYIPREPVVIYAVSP

T8: recombinant, full-length histidine-tagged MKS1
T8 chain: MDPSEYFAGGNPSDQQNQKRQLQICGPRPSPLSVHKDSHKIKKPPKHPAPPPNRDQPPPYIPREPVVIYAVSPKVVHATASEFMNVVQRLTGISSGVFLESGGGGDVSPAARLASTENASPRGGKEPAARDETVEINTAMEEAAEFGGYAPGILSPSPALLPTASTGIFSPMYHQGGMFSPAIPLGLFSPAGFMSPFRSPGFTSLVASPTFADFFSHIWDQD

T9: MPK4 as prey (AD fusion) (Arabidopsis thaliana, UniProt Q39024 1-376, limits assumed)
T9 construct: Used in the directed two-hybrid assay with MKS1 as bait; also called MPK4 prey
T9 sequence (looked up): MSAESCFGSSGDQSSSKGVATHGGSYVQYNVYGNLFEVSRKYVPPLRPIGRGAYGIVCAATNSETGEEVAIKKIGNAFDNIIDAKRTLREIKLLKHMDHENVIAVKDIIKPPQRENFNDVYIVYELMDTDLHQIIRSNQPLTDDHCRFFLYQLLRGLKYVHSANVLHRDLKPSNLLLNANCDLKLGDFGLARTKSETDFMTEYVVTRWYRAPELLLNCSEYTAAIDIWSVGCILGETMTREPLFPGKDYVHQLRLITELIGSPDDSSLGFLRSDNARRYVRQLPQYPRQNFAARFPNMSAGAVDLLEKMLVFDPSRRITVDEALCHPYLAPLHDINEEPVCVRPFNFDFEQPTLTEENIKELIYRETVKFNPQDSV

B1: MPK5 as prey (AD fusion) (other, UniProt Q39025 127-376, looked up, not shown: large carriers)
chain: MDTDLHQIIRSNQSLNDDHCQYFLYQILRGLKYIHSANVLHRDLKPSNLLLNSNCDLKITDFGLARTTSETEYMTEYVVTRWYRAPELLLNSSEYTSAIDVWSVGCIFAEIMTREPLFPGKDYVHQLKLITELIGSPDGASLEFLRSANARKYVKELPKFPRQNFSARFPSMNSTAIDLLEKMLVFDPVKRITVEEALCYPYLSALHDLNDEPVCSNHFSFHFEDPSSTEEEIKELVWLESVKFNPLPSI
B2: WRKY25 as prey (AD fusion) (other, Arabidopsis thaliana, UniProt O22921 1-393, looked up, not shown: large carriers)
chain: MSSTSFTDLLGSSGVDCYEDDEDLRVSGSSFGGYYPERTGSGLPKFKTAQPPPLPISQSSHNFTFSDYLDSPLLLSSSHSLISPTTGTFPLQGFNGTTNNHSDFPWQLQSQPSNASSALQETYGVQDHEKKQEMIPNEIATQNNNQSFGTERQIKIPAYMVSRNSNDGYGWRKYGQKQVKKSENPRSYFKCTYPDCVSKKIVETASDGQITEIIYKGGHNHPKPEFTKRPSQSSLPSSVNGRRLFNPASVVSEPHDQSENSSISFDYSDLEQKSFKSEYGEIDEEEEQPEMKRMKREGEDEGMSIEVSKGVKEPRVVVQTISDIDVLIDGFRWRKYGQKVVKGNTNPRSYYKCTFQGCGVKKQVERSAADERAVLTTYEGRHNHDIPTALRRS
notes: Library clone; also called transcription factor WRKY25
B3: WRKY29 as prey (AD fusion) (other, UniProt Q9SUS1 1-304, looked up, not shown: large carriers)
chain: MDEGDLEAIVRGYSGSGDAFSGESSGTFSPSFCLPMETSSFYEPEMETSGLDELGELYKPFYPFSTQTILTSSVSLPEDSKPFRDDKKQRSHGCLLSNGSRADHIRISESKSKKSKKNQQKRVVEQVKEENLLSDAWAWRKYGQKPIKGSPYPRSYYRCSSSKGCLARKQVERNPQNPEKFTITYTNEHNHELPTRRNSLAGSTRAKTSQPKPTLTKKSEKEVVSSPTSNPMIPSADESSVAVQEMSVAETSTHQAAGAIEGRRLSNGLPSDLMSGSGTFPSFTGDFDELLNSQEFFSGYLWNY
notes: mature
B4: MKS1 as bait (BD fusion), MKS1-BD (other)
chain: MKLLSSIEQACDICRLKKLKCSKEKPKCAKCLKNNWECRYSPKTKRSPLTRAHLTEVESRLERLEQLFLLIFPREDLDMILKMDSLQDIKALLTGLFVQDNVNKDAVTDRLASVETDMPLTLRQHRISATSSSEESSNKGQRQLTVSMDPSEYFAGGNPSDQQNQKRQLQICGPRPSPLSVHKDSHKIKKPPKHPAPPPNRDQPPPYIPREPVVIYAVSPKVVHATASEFMNVVQRLTGISSGVFLESGGGGDVSPAARLASTENASPRGGKEPAARDETVEINTAMEEAAEFGGYAPGILSPSPALLPTASTGIFSPMYHQGGMFSPAIPLGLFSPAGFMSPFRSPGFTSLVASPTFADFFSHIWDQD
notes: also called MKS1 bait; MAP Kinase Substrate 1
B5: HA (influenza hemagglutin antigen)-tagged MPK4 (protein)
chain: YPYDVPDYAYPYDVPDYAYPYDVPDYAYPYDVPDYAYPYDVPDYAYPYDVPDYAMSAESCFGSSGDQSSSKGVATHGGSYVQYNVYGNLFEVSRKYVPPLRPIGRGAYGIVCAATNSETGEEVAIKKIGNAFDNIIDAKRTLREIKLLKHMDHENVIAVKDIIKPPQRENFNDVYIVYELMDTDLHQIIRSNQPLTDDHCRFFLYQLLRGLKYVHSANVLHRDLKPSNLLLNANCDLKLGDFGLARTKSETDFMTEYVVTRWYRAPELLLNCSEYTAAIDIWSVGCILGETMTREPLFPGKDYVHQLRLITELIGSPDDSSLGFLRSDNARRYVRQLPQYPRQNFAARFPNMSAGAVDLLEKMLVFDPSRRITVDEALCHPYLAPLHDINEEPVCVRPFNFDFEQPTLTEENIKELIYRETVKFNPQDSV
B6: C1-MKS1 truncation (amino acids 1-196), two-hybrid construct (other, not shown: large carriers)
chain: T5 chain
B7: C3-MKS1 truncation (amino acids 1-73), two-hybrid construct (other, not shown: large carriers)
chain: T7 chain
B8: N1-MKS1, N-terminal truncated form (amino acids 55-222), two-hybrid construct (other)
chain: DQPPPYIPREPVVIYAVSPKVVHATASEFMNVVQRLTGISSGVFLESGGGGDVSPAARLASTENASPRGGKEPAARDETVEINTAMEEAAEFGGYAPGILSPSPALLPTASTGIFSPMYHQGGMFSPAIPLGLFSPAGFMSPFRSPGFTSLVASPTFADFFSHIWDQD
notes: also called N-terminally deleted MKS1; not shown: GAL4 BD or AD fusion partner
B9: C2-MKS1 truncation (amino acids 1-123), two-hybrid construct (other, not shown: large carriers)
chain: T6 chain

Legend:
[1] = molecular target: B4; test: directed yeast two-hybrid assay
Procedure: (§1) Yeast cells in the two hybrid screen were selected on the indicated nutrient depleted growth-media (-Histidine; -Leucine; -Adenine-Tryptophan) and assayed for β-galactosidase (β-gal) reporter gene activity.
(§2) To test the specificity of the MAP kinase interaction, the interaction of MKS1 with other plant MAP kinases was tested in the yeast two-hybrid assay.
(§3) The specificity of MKS1 interaction with WRKY transcription factors was examined in directed yeast two-hybrid assays with WRKY26 and WRKY29.

MPK4 as bait (BD fusion) = molecular target: T10, MPK4 as bait (BD fusion) (Arabidopsis thaliana, UniProt P04386 1-147; Q39024 1-376); test: directed yeast two-hybrid assay
T10 construct: also called MPK4 bait
Procedure: as §1, §2, §3

MPK3 as prey (AD fusion) = molecular target: T1, MPK3 as prey (AD fusion); test: directed yeast two-hybrid assay
Procedure: as §1, §2, §3

MPK6 as prey (AD fusion) = MPK6 as prey (AD fusion) (UniProt Q39026 1-395); test: directed yeast two-hybrid assay
Sequence of MPK6 as prey (AD fusion) (Q39026 whole entry, the tested form may be a part): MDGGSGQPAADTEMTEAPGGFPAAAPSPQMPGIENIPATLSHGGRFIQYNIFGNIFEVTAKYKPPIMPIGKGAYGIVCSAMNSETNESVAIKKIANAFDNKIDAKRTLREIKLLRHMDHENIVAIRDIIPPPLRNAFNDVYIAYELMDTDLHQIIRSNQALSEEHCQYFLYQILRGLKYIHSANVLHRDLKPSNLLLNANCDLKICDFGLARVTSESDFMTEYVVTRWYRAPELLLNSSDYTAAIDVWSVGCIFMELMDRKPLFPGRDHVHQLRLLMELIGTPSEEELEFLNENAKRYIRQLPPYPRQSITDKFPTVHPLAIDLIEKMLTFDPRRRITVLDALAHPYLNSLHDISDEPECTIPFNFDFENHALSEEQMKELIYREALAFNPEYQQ
Procedure: as §1, §2, §3

[2] = molecular target: T2, MPK17 as prey (AD fusion); test: directed yeast two-hybrid assay
Procedure: as §1, §2, §3

Flg22 peptide = molecular target: T3, Flg22 peptide
[3] = molecular target: T4, Pep22, synthetic peptide corresponding …
[4] = molecular target: T5, histidine-tagged C1-MKS1 truncation …
[5] = molecular target: T6, histidine-tagged C2-MKS1 truncation …
[6] = molecular target: T7, histidine-tagged C3-MKS1 truncation …
[7] = molecular target: T8, recombinant, full-length …
MPK4 as prey (AD fusion) = molecular target: T9, MPK4 as prey (AD fusion); test: yeast two-hybrid assay
[8] = molecular target: T11, WRKY33 as prey (AD fusion) (Arabidopsis thaliana, UniProt Q8S8P5 332-519, limits assumed); test: yeast two-hybrid assay
T11 construct: The library hits were five different truncated WRKY33 proteins; also called W33; transcription factor WRKY33
T11 sequence (Q8S8P5 332-519 limits assumed): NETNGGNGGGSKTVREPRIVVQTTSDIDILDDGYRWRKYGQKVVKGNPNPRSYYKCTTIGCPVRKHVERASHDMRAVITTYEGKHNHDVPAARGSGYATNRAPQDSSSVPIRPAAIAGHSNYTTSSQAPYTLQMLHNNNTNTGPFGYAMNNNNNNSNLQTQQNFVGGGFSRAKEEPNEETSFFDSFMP

## B1
[1]
  binding result: no binding

## B2
MPK4 as bait (BD fusion)
  binding result: no binding

## B3
[1]
  binding result: no binding

## B4
MPK3 as prey (AD fusion)
  binding result: no binding
MPK6 as prey (AD fusion)
  binding result: no binding
[2]
  binding result: no binding

## B5
Flg22 peptide
  competition of MKS1 phosphorylation by MPK4 in vitro: the FIG. 22 peptide did not compete MKS1 phosphorylation
[3]
  competition of MKS1 phosphorylation by MPK4 in vitro: Pep22 is an efficient competitor of full-length MKS1 for phosphorylation by MPK4, when added to the in vitro assay in a molar ratio of 1:1 (Pep22:MKS1)
[4]
  in vitro phosphorylation assay (32P-γ-ATP, SDS-PAGE, phosphorimager): HA-tagged MPK4 readily phosphorylated both full-length and C-terminal MKS1 truncations, including C3 MKS1
[5]
  in vitro phosphorylation assay (32P-γ-ATP, SDS-PAGE, phosphorimager): HA-tagged MPK4 readily phosphorylated both full-length and C-terminal MKS1 truncations, including C3 MKS1
[6]
  in vitro phosphorylation assay (32P-γ-ATP, SDS-PAGE, phosphorimager): HA-tagged MPK4 readily phosphorylated both full-length and C-terminal MKS1 truncations, including C3 MKS1
[7]
  in vitro phosphorylation assay (32P-γ-ATP, SDS-PAGE, phosphorimager): HA-tagged MPK4, immunoprecipitated from Arabidopsis plants, is shown to in vitro phosphorylate MKS1 as efficiently as myelin basic protein

## B6
MPK4 as prey (AD fusion)
  binding result: binds

## B7
[8]
  binding result: no binding
MPK4 as prey (AD fusion)
  binding result: binds

## B8
MPK4 as prey (AD fusion)
  binding result: no binding

## B9
MPK4 as prey (AD fusion)
  binding result: binds
